Target: human HER2 (ErbB2) (human) (UniProt P04626)
Experiment: cell-based or functional assay

murine monoclonal antibody 4D5 (ATCC CRL 10463)
inhibition of SK-BR-3 relative cell proliferation (crystal violet, 72 h, 5 ug/ml antibody): 56%
maximum inhibition of cell proliferation in SK-BR-3 cells: 66%

— patent publication EP2283866A2
